Values of other authors, collected in paper PMC3415683.

Molecular target: Dll-1 DSL-EGF3 (Homo sapiens) (UniProt O00548)
Assay: SPR

UniProt O00548, sequence (O00548 177-325): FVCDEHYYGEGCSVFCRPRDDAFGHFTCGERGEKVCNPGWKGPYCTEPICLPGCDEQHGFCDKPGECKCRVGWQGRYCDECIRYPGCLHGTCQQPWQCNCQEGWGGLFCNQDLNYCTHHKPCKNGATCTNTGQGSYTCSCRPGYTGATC

Kd: 130 µM
Substance: Notch1 EGF11-14 (from UniProt P46531)
